B1: mutant rat Arc (Arc^s113−119A) (natural protein, UniProt Q63053 1-396, looked up)
chain: MELDHMTTGGLHAYPAPRGGPAAKPNVILQIGKCRAEMLEHVRRTHRHLLTEVSKQVERELKGLHRSVGKLENNLDGYVPTGDSQRWKKSIKACLCRCQETIANLERWVKREAAAAAAAFYRLERWADRLESMGGKYPVGSEPARHTVSVGVGGPEPYCQEADGYDYTVSPYAITPPPAAGELPEQESVGAQQYQSWVPGEDGQPSPGVDTQIFEDPREFLSHLEEYLRQVGGSEEYWLSQIQNHMNGPAKKWWEFKQGSVKNWVEFKKEFLQYSEGTLSREAIQRELDLPQKQGEPLDQFLWRKRDLYQTLYVDAEEEEIIQYVVGTLQPKFKRFLRHPLPKTLEQLIQRGMEVQDGLEQAAEPSVTPLPTEDETEALTPALTSESVASDRTQPE
notes: Activity-regulated cytoskeleton-associated protein (Arc, Arg3.1), rat; residues of the oligomerization motif 113-MHVWREV-119 substituted to alanine; also called purified mutant Arc^s113−119A protein; activity-regulated cytoskeleton-associated protein; source: purified recombinant

Assays:
[1] = molecular target: Arc NL (Rattus norvegicus) (UniProt Q63053); assay: ITC; details: cited from earlier work
[2] = molecular target: the molecule itself; assay: native gel or EMSA; different amounts of purified Arc^s113−119A in native sample buffer, native PAGE on 4-15% Tris-Glycine gels; bands detected by immunoblotting with ALFA-ArcNbs and anti-ALFA HRP-coupled sdAb

| Molecule | Kd [1] [µM] | binding result [2] |
| --- | --- | --- |
| stargazin (from UniProt Q71RJ2) | 0.0349 |  |
| B1 |  | binds |

— article PMC9463278, “Development and Validation of Arc Nanobodies: New Tools for Probing Arc Dynamics and Function” (Neurochemical Research, 2022)
